Test results from US20220175781A1, “CD40L COMPOSITIONS AND METHODS FOR TUNABLE REGULATION” (Obsidian Therapeutics, Inc., priority 2019, published 2022).

Columns and labels:
Assay type in all cases: cell-based
[1] = tested on: Jurkat cells; experiment: Surface expression of CD40L by FACS in lentivirally transduced Jurkat cells; settings: constitutive construct
Procedure: 50,000 Jurkat cells were transduced with lentiviruses corresponding to the constructs. OT-001661, OT-001685, OT-001662, or OT-001666 and cultured for 48h. Cells were split and incubated with ligands for 24h before analysis by flow cytometry.
Jurkat cells were treated with one of the following: 1 μM Shield-1, 50 μM TMP, 1 μM Bazedoxifene (BZD) or vehicle control. Surface expression of CD40L was measured using FACS and the results are show in Table 9. All values were normalized to mode.

[2] = tested on: Monocyte derived dendritic cells (mDC); experiment: Cytokine production in mDC-T cell co-culture (MSD); settings: mDC-T cell co-culture 2 days
Description: In order to engage dendritic cells in an immune response, dendritic cells must be converted to a functional state by an antigen-specific CD4+ helper T cell. Activation of the dendritic cells may be followed by the activation of CD8+ T cells by the dendritic cells, a process referred to as dendritic cell licensing. Engagement of the CD40L expressed on the CD4+ cells with the CD40 on the dendritic cells can result in (i) dendritic cell stimulation-measured by expression of co-stimulatory and MHC molecules (ii) proinflammatory cytokine release (e.g. IL12, TNFα and INFγ) (iii) epitope spreading. To measure the effect of CD40L expression that is tuned by the biocircuits of the present disclosure, CD4+ T cells or Jurkat cells expressing any of the CD40L constructs described herein were co-cultured with dendritic cells.
Dendritic cell function in response to co-culture with T cells expressing CD40L was evaluated in the presence of ligand or corresponding vehicle control. Monocyte derived dendritic cells (mDC) (CD14+) were isolated from fresh blood and cultured for 5 days with IL-4 (7.5 ng/mL) and GM-CSF (20 ng/mL). The mDCs were frozen down after the 5 day culture. T cells were transduced with OT-001662 and expanded for 9 days before being frozen down. mDCs and T cells were thawed and co-cultured 1:10 DC: T cell ratio (i.e. 5×10^4 DCs: 5×10^5 T cells). mDC and T cells were co-cultured for 2 days before cells were collected for flow cytometry and supernatants were collected for cytokine analysis. For evaluation of regulated constructs, ligand (various doses of TMP) was added at the time initiating the co-culture and was kept in the co-culture for 2 days. Cytokines were analyzed by MSD after a single freeze thaw cycle. All cells were cultured in complete RPMI with 10% FBS during the course of the experiment. SR indicates stabilization ratio.

[3] = tested on: HEK-Blue™ CD40 cells; experiment: HEK-Blue CD40 SEAP reporter co-culture with transduced Jurkat cells; settings: ligand 24 h (1 μM Shield-1, 50 μM TMP or 1 μM Bazedoxifene), recombinant soluble CD40L as standard
Procedure: Jurkat cells transduced with OT-001661, OT-001685, OT-001662, OT-001666, or OT-001667 were co-cultured with HEK-Blue™ CD40 cells (Invivogen, San Diego, Calif.). Cocultures were treated with ligands (1 μM Shield-1, 50 μM TMP, 1 μM Bazedoxifene (BZD) or vehicle control) for 24 hours and the secreted embryonic alkaline phosphatase (SEAP) reporter levels were measured in the media. All vehicle treated samples had background SEAP activity. Recombinant soluble CD40L was used as the standard in the experiments.

B1: OT-001661: constitutively expressed full length CD40L construct (protein)
chain: MHMIETYNQTSPRSAATGLPISMKIFMYLLTVFLITQMIGSALFAVYLHRRLDKIEDERNLHEDFVFMKTIQRCNTGERSLSLLNCEEIKSQFEGFVKDIMLNKEETKKENSFEMQKGDQNPQIAAHVISEASSKTTSVLQWAEKGYYTMSNNLVTLENGKQLTVKRQGLYYIYAQVTFCSNREASSQAPFIASLCLKSPGRFERILLRAANTHSSAKPCGQQSIHLGGVFELQPGASVFVNVTDPSQVSHGTGFTSFGLLKL
- CD40L positive percent of live cells ([1]; FACS, no DRD, no ligand): 99.4%
- Geometric Mean of CD40L fluorescent intensity ([1]; FACS, no DRD, no ligand): 10075
- CD40L expression relative to untransduced cells [1]: higher than untransduced cells
- Cytokine Production IFNg ([2]; DMSO): 12973 pg/mL
- Cytokine Production IL12 ([2]; DMSO): 58.935 pg/mL
- Cytokine Production TNFa ([2]; DMSO): 456.3242 pg/mL
- Cytokine Production IFNg ([2]; TMP): 10939.9 pg/mL
- Cytokine Production IL12 ([2]; TMP): 86.229 pg/mL
- Cytokine Production TNFa ([2]; TMP): 440.0804 pg/mL
- Soluble CD40L [3]: 9341.40 pg/mL
